Key:
SEC = biological target: the molecule itself; test: SEC
purified protein [1] = substrate: O=C(O)[C@@H]1CCCN1; test: purified protein; conditions: NADP+
purified protein [2] = substrate: O=C(O)C1=NCCCC1; test: purified protein; conditions: NADPH
purified protein [3] = substrate: O=C(O)[C@@H]1CCCCN1; test: purified protein; conditions: NADP+
purified protein [4] = substrate: O=C(O)C1=NCCC1; test: purified protein; conditions: NADPH
purified protein [5] = substrate: O=C(O)C1=NC[C@@H](O)C1; test: purified protein; conditions: NADPH
[6] = potassium phosphate pH 6.5, 30 °C
[7] = potassium phosphate pH 7.0, 30 °C

Protein | stoichiometry N (SEC) | Km (purified protein [1]; glycine-NaOH pH 10.5, 30 °C) | kcat (purified protein [1]; glycine-NaOH pH 10.5, 30 °C) | kcat/Km (purified protein [1]; glycine-NaOH pH 10.5, 30 °C) | Km (purified protein [2]; [6]) | kcat (purified protein [2]; [6]) | kcat/Km (purified protein [2]; [6]) | Km (purified protein [3]; glycine-NaOH pH 10.5, 30 °C) | kcat (purified protein [3]; glycine-NaOH pH 10.5, 30 °C) | kcat/Km (purified protein [3]; glycine-NaOH pH 10.5, 30 °C) | Km (purified protein [4]; [6]) | kcat (purified protein [4]; [6]) | kcat/Km (purified protein [4]; [6]) | Km (purified protein [5]; [6]) | kcat (purified protein [5]; [6]) | kcat/Km (purified protein [5]; [6]) | also measured
C14orf149, human trans-3-hydroxy-L-proline dehydratase (enzyme, UniProt Q96EM0 1-354, looked up) MESALAVPRLPPHDPGTPVLSVVDMHTGGEPLRIVLAGCPEVSGPTLLAKRRYMRQHLDHVRRRLMFEPRGHRDMYGAVLVPSELPDAHLGVLFLHNEGYSSMCGHAVLALGRFALDFGLVPAPPAGTREARVNIHCPCGLVTAFVACEDGRSHGPVRFHSVPAFVLATDLMVDVPGHGKVMVDIAYGGAFYAFVTAEKLGLDICSAKTRDLVDAASAVTEAVKAQFKINHPDSEDLAFLYGTILTDGKDAYTKEPTTNICVFADEQVDRSPTGSGVTARIALQYHKGLLELNQMRAFKSSATGSVFTGKAVREAKCGDFKAVIVEVSGQAHYTGTASFIIEDDDPLRDGFLLK | 2 |  |  |  |  |  |  |  |  |  |  |  |  |  |  |  | 
AbLhpH, trans-3-hydroxy-L-proline dehydratase of Azospirillum brasilense (enzyme, UniProt V5YXI5 1-335, looked up) MKITRSLSTVEVHTGGEAFRIVTSGLPRAPGDTIVQRRAWLKENADEIRRALMFEPRGHADMYGGYLTEPVSPNADFGVIFVHNEGYSDHCGHGVIALSTAAVELGWVQRTVPETRVGIDAPCGFIEAFVKWDGEHAGPVRFVNVPSFIWQRDVSVETPSFGTVTGDIAYGGAFYFYVDGAPFDLPVREAAVEKLIRFGAEVKAAANAKYPVVHPEIPEINHIYGTIIANAPRHPGSTQANCCVFADREVDRSPTGSGTGGRVAQLYQRGLLAAGDTLVNESIVGTVFKGRVLRETTVGDIPAVIPEVEGSAHICGFANWIVDERDPLTYGFLVR | 2 |  |  |  |  |  |  |  |  |  |  |  |  |  |  |  | 
AbLhpI, Δ1-pyrroline-2-carboxylate reductase of Azospirillum brasilense (enzyme, UniProt V5YW53 1-311, looked up) MTALSPIPVFDAADTAALLAYPALLATLGQAVADYAAGEIVSPERLVVPLQAGGVMLSMPSSARDLATHKLVNVCPGNGARGLPTILGQVTAYDASTGEMRFALDGPTVTGRRTAAVTALGIQALHGAAPRDILLIGTGKQAANHAEALAAIFPEARLHVRGTSADSAAAFCAAHRAQAPRLVPLDGDAIPDAIDVVVTLTTSRTPVYREAAREGRLVVGVGAFTADAAEIDANTVRASRLVVDDPAGARHEAGDLIVAQVDWQHVASLADVLGGTFDRSGPLLFKSVGCAAWDLAACRTARDALAARRAG | 2 | 3.63 ± 0.31 mM | 3.92 ± 0.117 s⁻¹ | 1080 ± 61.7 M⁻¹ s⁻¹ | 0.474 ± 0.050 mM | 166 ± 10.2 s⁻¹ | 352000 ± 16800 M⁻¹ s⁻¹ | 6.54 ± 0.96 mM | 2.5 ± 0.233 s⁻¹ | 383 ± 20 M⁻¹ s⁻¹ | 0.628 ± 0.045 mM | 523 ± 21.7 s⁻¹ | 835000 ± 23300 M⁻¹ s⁻¹ | 0.491 ± 0.063 mM | 10.3 ± 0.967 s⁻¹ | 21200 ± 750 M⁻¹ s⁻¹ | 
PaLhpD, Pyr2C/Pip2C reductase of Pseudomonas aeruginosa (enzyme, Pseudomonas aeruginosa PAO1, UniProt Q9I492 1-334, looked up) MIRMTLDEVRELAVRILRRHAFSEAHVQAVADTLVAGERDECASHGIWRLLGCIATLKAGKVSADAEPELHDIAPGLLRVDAHGGFSQCAFRLGLPHLLEKARSQGIAAMAVNRCVHFSALWVEVEALTEAGLVALATTPSHAWVAPAGGRKPIFGTNPIAFGWPRPDGPPFVFDFATSAVARGEIQLHERAGKPIPLGWGVDEQGEPTTDASAALRGAMLTFGGHKGSALAAMVELLAGPLIGDLTSAESLAYDEGSRSSPYGGELLIAIDPRRMLGASAEEHLARAETLFEGIVEQGARLPSQRRFEARERSARDGVTIPEALHRELLALLE | 2 |  |  |  |  |  |  |  |  |  |  |  |  |  |  |  | Km (purified protein [1]; glycine-NaOH pH 10.0, 30 °C): 18.5 ± 2.1 mM; kcat (purified protein [1]; glycine-NaOH pH 10.0, 30 °C): 3.42 ± 0.3 s⁻¹; kcat/Km (purified protein [1]; glycine-NaOH pH 10.0, 30 °C): 185 ± 5 M⁻¹ s⁻¹; Km (purified protein [2]; [7]): 1.57 ± 0.3 mM; kcat (purified protein [2]; [7]): 35.3 ± 4.83 s⁻¹; kcat/Km (purified protein [2]; [7]): 22500 ± 1130 M⁻¹ s⁻¹; Km (purified protein [3]; glycine-NaOH pH 10.0, 30 °C): 34.8 ± 4.0 mM; kcat (purified protein [3]; glycine-NaOH pH 10.0, 30 °C): 2.25 ± 0.233 s⁻¹; kcat/Km (purified protein [3]; glycine-NaOH pH 10.0, 30 °C): 64.7 ± 0.833 M⁻¹ s⁻¹; Km (purified protein [4]; [7]): 0.447 ± 0.040 mM; kcat (purified protein [4]; [7]): 41.7 ± 2 s⁻¹; kcat/Km (purified protein [4]; [7]): 93300 ± 3670 M⁻¹ s⁻¹; Km (purified protein [5]; [7]): 0.835 ± 0.109 mM; kcat (purified protein [5]; [7]): 14.5 ± 1.18 s⁻¹; kcat/Km (purified protein [5]; [7]): 17400 ± 800 M⁻¹ s⁻¹
CpLhpI, Δ1-pyrroline-2-carboxylate reductase of Colwellia psychrerythraea 34H (enzyme, UniProt Q485R8 1-316, looked up) MKIISAEQVHQNLNFEELIPLLKQSFSRPFSMPQRQVYSLAPEQSENHDAFALLPSWNEEVIGNKAFTYFPDNAKKHDLPGLFSKIMLFKRQTGEPLALVDGTSVTYWRTAAISALASQLLSRKNSQHLMLFGTGNLASYLVKAHLTVRDIKQVTLWGRNAKKVSKLIADFSILYPAVTFKTSVDVNAEVASADIICCATGAKTPLFDGNSVSAGCHIDCLGNHMTDARECDTTTILRARVFVDSLTNTLNEAGELLIPMAEDAFNKDEIVGELADMCKTPSMLRQSSDEITLFKSVGTAISDLVAAHSVVEKLAD | 2 | 18.3 ± 2.4 mM | 1.09 ± 0.115 s⁻¹ | 59.5 ± 1.5 M⁻¹ s⁻¹ | 7.26 ± 1.22 mM | 1.38 ± 0.228 s⁻¹ | 190 ± 3.33 M⁻¹ s⁻¹ | 80.1 ± 2.8 mM | 0.0213 ± 0.000667 s⁻¹ | 0.267 ± 0.0167 M⁻¹ s⁻¹ | 5.90 ± 0.36 mM | 124 ± 7.83 s⁻¹ | 21170 ± 33.3 M⁻¹ s⁻¹ | 8.28 ± 2.45 mM | 1.02 ± 0.287 s⁻¹ | 124 ± 2.33 M⁻¹ s⁻¹ | 
CpLhpH, trans-3-hydroxy-L-proline dehydratase of Colwellia psychrerythraea 34H (enzyme, UniProt Q485S0 1-355, looked up) MTKNIAQAAVKFEQWQPKIEQESYLTINSLECHTGGEPLRIITSGFPVLKGNTILAKANDCKQNYDQLRRALMFEPRGHADMYGAIITDAERDDSHFGAVFIHNEGYSSMCGHAVIALTKTAVESGVVARTGDVTQVVIDVPCGQIYAMAYSHNNVVKHVSFQCVPSFVYAKDQQVEVDGIGMVQFDIAYGGAFYAYVQASSLGLSLVPEQQEKLIAYGRKIKQAIIPQFEINHPTTAELSFLYGVIFIDDSPNQDVHSRNVCIFADGELDRSPTGSGVSGRIALHHAKQQIVLNETITIESILASSFSVRAIETVCFAGFDAVIPEVTGDAYVCGKGQWFINAEDPLKYGFLLR | 2 |  |  |  |  |  |  |  |  |  |  |  |  |  |  |  | 

Source: paper PMC3958920 (FEBS Open Bio, 2014)
